Experimental data as given in patent US20150147342A1 (published 2015).

Experiments:
Monkey Ang-2FD-hFc = molecular target: T1, Monkey Ang-2FD-hFc (monkey (Macca fascicularis)); test: ELISA, 16.67 nM antibody + 2 nM monkey Ang-2FD-hFc, on coated hTie-2-mFc (competitor)
T1 construct: Order of the pieces follows the name; also called Dimeric Monkey Ang-2FD
Method: (§1) Tie-2 is a natural receptor for Ang-2. Anti-Ang-2 antibodies were tested for their ability to block Ang-2 binding to human Tie-2 (hTie-2). hTie-2-mFc (a chimeric construct consisting of human Tie-2 conjugated to mouse IgG; SEQ ID NO:525) was coated onto 96-well plates at a concentration of 2 μg/ml and incubated overnight followed by washing four times in wash buffer (PBS with 0.05% Tween-20). The plate was then blocked with PBS (Irvine Scientific, Santa Ana, Calif.) containing 0.5% BSA (Sigma-Aldrich Corp., St. Louis, Mo.) for one hour at room temperature. In a separate plate, purified anti-Ang-2 antibodies, at a starting concentration of 50 nM, were serially diluted by a factor of three across the plate. […] The antibody/Ang-2FD-Fc mixture was then added to the plate containing hTie-2-mFc and incubated for one hour at room temperature.

Human Ang-2FD-hFc = molecular target: T2, Human Ang-2FD-hFc (human); test: ELISA, 16.67 nM antibody + 2 nM human Ang-2FD-hFc, on coated hTie-2-mFc (competitor)
T2 construct: Order of the pieces follows the name (Ang-2FD, then hFc); also called Dimeric Human Ang-2FD; human Ang-2FD protein conjugated to human IgG
Method: as §1

Mouse Ang-2FD-hFc = molecular target: T3, Mouse Ang-2FD-hFc (mouse (Mus musculus)); test: ELISA, 16.67 nM antibody + 8 nM mouse Ang-2FD-hFc, on coated hTie-2-mFc (competitor)
T3 construct: Order of the pieces follows the name; also called Dimeric Mouse Ang-2FD
Method: as §1

[1] = molecular target: T4, Dimeric fibrinogen-like domain of human Ang-2 conjugated to human IgG1 (human); test: SPR, antibody captured, room temp
T4 construct: also called Dimeric Human Ang-2FD; Human Ang-2FD-hFc
Method: (§2) Antibody was captured on a goat anti-mouse IgG polyclonal antibody surface, a goat anti-human κ polyclonal antibody (Southern Biotech, Birmingham, Ala.) surface or a goat anti-human IgG polyclonal antibody (Jackson Immuno Research Lab, West Grove, Pa.) surface created through direct amine coupling to a BIACORE™ CM5 sensor chip to form a captured antibody surface. […] Antigen-antibody binding and dissociation were monitored in real time at room temperature. Kinetic analysis was performed to calculate KD and half-life of antigen/antibody complex dissociation.

[2] = molecular target: T5, Dimeric fibrinogen-like domain of monkey (Macca fascicularis) Ang-2 conjugated to human IgG1 (monkey (Macca fascicularis)); test: SPR, antibody captured, room temp
T5 construct: also called Dimeric Monkey Ang-2FD; Monkey Ang-2FD-hFc
Method: as §2

[3] = molecular target: T6, Dimeric fibrinogen-like domain of mouse (Mus musculus) Ang-2 conjugated to human IgG1 (mouse (Mus musculus)); test: SPR, antibody captured, room temp
T6 construct: also called Dimeric Mouse Ang-2FD; Mouse Ang-2FD-hFc
Method: as §2

[4] = molecular target: T4, Dimeric fibrinogen-like domain of human …; test: blocking ELISA, 16.67 nM antibody, coated hTie-2-mFc
Method: as §1

[5] = molecular target: T5, Dimeric fibrinogen-like domain of …; test: as above
Method: as §1

[6] = molecular target: T6, Dimeric fibrinogen-like domain of mouse …; test: as above
Method: as §1

B1: H1H691P (antibody, V domains shown)
VH: EVQLVESGGGLVQPGRSLRLSCAASGFTFDDYAMHWVRQAPGKGLEWVSGISWNSGDIGYADSVKGRFTISRDNAKNSLYLQMNSLRAQDTALYYCAKAYGDYYYFYGMDVWGQGTTVTVS
VL: EIVLTQSPGTLSLSPGERATLSCRASQSVSSSYLAWYQQKPGQAPRLLIFSASSRATGIPDRFSGSGSGTDFTLTISRLEPEDFAVYYCQQYDNSLTFGGGTKVEIK
notes: Fully human antibody, human IgG1
Percent Blocking of Ang-2FD Binding to Tie-2 (Monkey Ang-2FD-hFc): 99.8%
Percent Blocking of Ang-2FD Binding to Tie-2 (Human Ang-2FD-hFc): 97.4%
Percent Blocking of Ang-2FD Binding to Tie-2 (Mouse Ang-2FD-hFc): 96.7%

B2: H1H706P (antibody, V domains shown)
VH: QVQLVESGGGVVQPGRSLRLSCAASGFTFSSYGMHWVRQAPDKGLEWVAVKWDDGSNKYYADSVKGRFTISRDNSKNTLYLQMNSLRAEDTAVYYCAREGPYDFYSGYGAFDIWGQGTMVTVSS
VL: DIQMTQSPSSLSASVGDRVTITCRASQGISNYLAWFQQKPGKAPKSLIYAASSLQSGVPSKFSGSGSGTDFTLTISSLQPEDFATYYCQQYNSYPRTFGQGTKVEIK
notes: as for B1
Percent Blocking of Ang-2FD Binding to Tie-2 (Monkey Ang-2FD-hFc): 99.8%
Percent Blocking of Ang-2FD Binding to Tie-2 (Human Ang-2FD-hFc): 97.1%
Percent Blocking of Ang-2FD Binding to Tie-2 (Mouse Ang-2FD-hFc): 95.9%

B3: H1H707P (antibody, V domains shown)
VH: QVQLVESGGGVVQPGRSLRLSCAASGFTFSSYGMHWVRQAPDKGLEWVAVKWDDGSNKYYADSVKGRFTISRDNSKNTLYLQMNSLRAEDTAVYYCAREGPYDFYSGYGAFDIWGQGTMVTVSS
VL: not shown
notes: as for B1
Percent Blocking of Ang-2FD Binding to Tie-2 (Human Ang-2FD-hFc): 95.1%
Percent Blocking of Ang-2FD Binding to Tie-2 (Mouse Ang-2FD-hFc): 93.8%

B4: H1H690P (antibody, V domains shown)
VH: EVQLVESGGGLVQPGESLRLSCAASGFTFSSYAMSWVRQGPGKGLEWVSSITGSGDTTYYADSVKGRFTISRDNSKNTLYLHMNSLRAEDTAVYYCAKDFLDYSTYLAFDLWGQGTMVTVSS
VL: EIVLTQSPATLSLSPGERATLSCRASQSVSSYLTWYQQKPGQAPRLLSYDASNRATGIPARFSGSGSGTDFTLTISSLEPEDFAVYYCQQRSNWPLTFGGGTKVEIK
notes: as for B1
Percent Blocking of Ang-2FD Binding to Tie-2 (Monkey Ang-2FD-hFc): 99.6%
Percent Blocking of Ang-2FD Binding to Tie-2 (Human Ang-2FD-hFc): 97.2%
Percent Blocking of Ang-2FD Binding to Tie-2 (Mouse Ang-2FD-hFc): 98%

B5: H1H693P (antibody, V domains shown)
VH: EVQLVESGGGLVQPGESLRLSCAASGFTFSSYAMSWVRQGPGKGLEWVSSISGSGGTTYYADSVEGRFTISRDNSKNTLYLHMNSLRAEDTAVYYCAKDFLDYSTYLAFDLWGQGTMVTVSS
VL: DIQMTQSPSSVSASVGDRVTITCRASQGISSWLAWYQQKPGKAPKLLIYAASSLQSGVPSRFSGSGSGTDFTLTISSLQPEDFATYYCQQANSFPRTFGQGTKVEIK
notes: as for B1
Percent Blocking of Ang-2FD Binding to Tie-2 (Human Ang-2FD-hFc): 73.9%
Percent Blocking of Ang-2FD Binding to Tie-2 (Mouse Ang-2FD-hFc): 63.6%

B6: H1H704P (antibody, V domains shown)
VH: QVQLVESGGDVVQPGRSLRLSCAASGFTFSSYGMHWVRQAPGKGLEWVAIIWYDGSNKYYADSVKGRFTISRDNSKNTLYLQMNSLRVEDTAVYSCARDFSISSRHFDYWGQGTLVTVSS
VL: DIQMTQSPSSLSASVGDRVTITCRASQAINNYLAWFQQKPGKAPKSLIYATSNLQSGVPSQFSGSGSGTDYTLTISSLQPEDFATYYCQQYYIYPITFGQGTRLEIK
notes: as for B1
Percent Blocking of Ang-2FD Binding to Tie-2 (Human Ang-2FD-hFc): 97%
Percent Blocking of Ang-2FD Binding to Tie-2 (Mouse Ang-2FD-hFc): 41.8%

B7: H2M744N (antibody, V domains shown)
VH: QVQLVQSGVEVKKPGASVKVSCKTSGYTFSNNGFSWVRQAPGQGLEWLGWISGYNGNTNYAQKFQGRVTMTTDTSTSTAYMELRTLRSDDTAVYYCARDQDYSNFHWLDPWGQGTLVTVAS
VL: DIQMTQSPSSVSASVGDRVIITCRASQGLSSWLAWYQQKPGTAPKLLIHSASSLQTGVPSRFSGSGSGTEFALTINSLQPEDFGTYYCQQANSFPLTFGGGTRVEIK
Kd [1]: 98.9 pM
T1/2 [1]: 1.82 h
Kd [2]: 500 pM
T1/2 [2]: 4.69 h
Kd [3]: 143 pM
T1/2 [3]: 3.72 h
Percent Blocking of Ang-2FD Binding to Tie-2 [4]: 99.5%
Percent Blocking of Ang-2FD Binding to Tie-2 [5]: 95.5%
Percent Blocking of Ang-2FD Binding to Tie-2 [6]: 98.4%

B8: H1H744N (antibody, V domains shown)
VH: QVQLVQSGVEVKKPGASVKVSCKTSGYTFSNNGFSWVRQAPGQGLEWLGWISGYNGNTNYAQKFQGRVTMTTDTSTSTAYMELRTLRSDDTAVYYCARDQDYSNFHWLDPWGQGTLVTVAS
VL: DIQMTQSPSSVSASVGDRVIITCRASQGLSSWLAWYQQKPGTAPKLLIHSASSLQTGVPSRFSGSGSGTEFALTINSLQPEDFGTYYCQQANSFPLTFGGGTRVEIK
Percent Blocking of Ang-2FD Binding to Tie-2 (Monkey Ang-2FD-hFc): 96.2%
Percent Blocking of Ang-2FD Binding to Tie-2 (Human Ang-2FD-hFc): 97.9%
Percent Blocking of Ang-2FD Binding to Tie-2 (Mouse Ang-2FD-hFc): 97.6%

B9: H2M749N (antibody, V domains shown)
VH: QVQLVESGGGVVQPGRSLRLSCAASGFTFSSYGMHWVRQAPGKGLEWVAVIWYDEFNKYYADSVKGRFTISRDNSKNTLYLQMNSLRAEDTAVYYCARERESGYSYGFDYWGQGTLVTVSS
VL: EIVMTQSPATLSVSPGERATLSCRAGQSVSSNLAWYQQKPGQAPRLLIYGASTRATGIPARFSGSGSGTEFTLTISSLQSEDFAVYYCQQYNNWWTFGQGTKVEIK
notes: Hybridoma-derived chimeric antibody, mouse constant domains; also called H1M749N; H1M749
Kd [1]: 165 pM
T1/2 [1]: 0.715 h
Kd [2]: 1500 pM
T1/2 [2]: 0.682 h
Kd [3]: 529 pM
T1/2 [3]: 0.425 h
Percent Blocking of Ang-2FD Binding to Tie-2 [4]: 99.5%
Percent Blocking of Ang-2FD Binding to Tie-2 [5]: 97.4%
Percent Blocking of Ang-2FD Binding to Tie-2 [6]: 97.3%

B10: H1H695P (antibody, V domains shown)
VH: QVQLVESGGGVVQPGRSLRLSCAASGFTFSSYGMHWVRQAPGKGLEWVAVMWYDETNKYYADSVKGRFTISRDNSKNTLYLQMNSLRAEDTAVYYCARYSGYEDYYHGMDVWGQGTTVTVS
VL: EIVMTQSPATPSVSPGERATLSCRASQSISSNLAWYQQKPGQAPRLLIYGASTRATGIPARFSGSGSGTEFTLTISSLQSEDFAVYYCQHYNNWITFGQGTRLEIK
notes: as for B1
Percent Blocking of Ang-2FD Binding to Tie-2 (Human Ang-2FD-hFc): 98.4%
Percent Blocking of Ang-2FD Binding to Tie-2 (Mouse Ang-2FD-hFc): 97.6%

B11: H1H724N (antibody, V domains shown)
VH: QVQLVESGGGVVQPGRSLRLSCAASGFTLSNYGMHWVRQAPGKGLEWVAVIWHDGSNTYYADSVKGRFTISRDNSKNTLYLQMNSLRAEDTAVYYCTREGLDFWSGYYPNWFDPWGQGTLVTVSS
VL: DIQMTQSPSSLSASVGDRVTITCRASQGIRNDLGWYQQKPGKAPKRLIYAASNLQGGVPSRFSGSGSGTEFTLTISSLQPEDFAAYYCLQHNIYPLTFGGGTKVEIK
Percent Blocking of Ang-2FD Binding to Tie-2 (Monkey Ang-2FD-hFc): 96.6%
Percent Blocking of Ang-2FD Binding to Tie-2 (Human Ang-2FD-hFc): 96.6%
Percent Blocking of Ang-2FD Binding to Tie-2 (Mouse Ang-2FD-hFc): 97.1%
